Assay results as given in patent US20250197455A1.

Key:
BG505 N28 JCBv3 660 = test: supernatant ELISA; row BG505.RnS7Mut-N28-JCBv3-660
BG505 N28 502 660-665 = test: supernatant ELISA; row BG505.RnS7Mut-N28-502-660-665
6931-DS-N28-502-660-665 = test: supernatant ELISA; row scFc-3C-6931-DS-28-502-660-665
6931-DS-N28-JCBv3-660 = test: supernatant ELISA; row scFc-3C-6931-DS-28_JCB04V3-660
BG505 N28 JCBv2 660-665 = test: supernatant ELISA; row BG505.RnS7Mut-N28-JCBv2-660-665
[1] = biological target: BG505 glycan-base trimer, VRC 7873 (4571_RnS7Mutv1-2G-3Mut-N28-JCBv3-N660-N665.667_613S_620S) (BG505-based) (HIV-1 (BG505, Clade A)); test: supernatant ELISA; row BG505.RnS7Mut-N28-JCBv3-660-665
[2] = biological target: protein-base BG505 trimer, BG505-RnS7Mutv1-DS-SOSIP-2G-3Mut (HIV-1 (BG505, Clade A)); test: supernatant ELISA; row BG505-RnS(7MutV1)-2G-3mut-DS_SOSIP-scFc
[3] = biological target: ConC glycan-base trimer, VRC 7678 (6931_DS-N28-JCBv3-N660-N665.667) (ConC based) (HIV-1 (consensus clade C, ConC)); test: supernatant ELISA; row scFc-3C-6931-DS-28_JCB04V3-660-665

Substance: 3BNC117 (antibody)
- ELISA OD450 (raw) (BG505 N28 JCBv3 660): 1.01 OD450
- ELISA OD450 (raw) (BG505 N28 502 660-665): 0.841 OD450
- ELISA OD450 (raw) (6931-DS-N28-502-660-665): 1.03 OD450
- ELISA OD450 (raw) (6931-DS-N28-JCBv3-660): 1.13 OD450
- ELISA OD450 (raw) (BG505 N28 JCBv2 660-665): 0.952 OD450
- ELISA OD450 (raw) [1]: 0.981 OD450
- ELISA OD450 (raw) [2]: 1.04 OD450

Substance: 35O22 (antibody)
- ELISA OD450 (raw) (BG505 N28 JCBv3 660): 0.728 OD450
- ELISA OD450 (raw) (BG505 N28 502 660-665): 0.785 OD450
- ELISA OD450 (raw) (6931-DS-N28-502-660-665): 0.916 OD450
- ELISA OD450 (raw) (BG505 N28 JCBv2 660-665): 0.628 OD450
- ELISA OD450 (raw) [1]: 0.632 OD450
- ELISA OD450 (raw) [3]: 0.954 OD450
- ELISA OD450 (raw) [2]: 1.01 OD450

Substance: F105 (antibody)
- ELISA OD450 (raw) (BG505 N28 JCBv3 660): 0.196 OD450
- ELISA OD450 (raw) (BG505 N28 502 660-665): 0.106 OD450
- ELISA OD450 (raw) (6931-DS-N28-502-660-665): 0.337 OD450
- ELISA OD450 (raw) (6931-DS-N28-JCBv3-660): 0.432 OD450
- ELISA OD450 (raw) (BG505 N28 JCBv2 660-665): 0.141 OD450
- ELISA OD450 (raw) [1]: 0.157 OD450
- ELISA OD450 (raw) [2]: 0.134 OD450

Substance: N6 (antibody)
- ELISA OD450 (raw) (BG505 N28 JCBv3 660): 0.771 OD450
- ELISA OD450 (raw) (BG505 N28 502 660-665): 0.666 OD450
- ELISA OD450 (raw) (6931-DS-N28-502-660-665): 0.876 OD450
- ELISA OD450 (raw) (6931-DS-N28-JCBv3-660): 0.918 OD450
- ELISA OD450 (raw) (BG505 N28 JCBv2 660-665): 0.816 OD450
- ELISA OD450 (raw) [1]: 0.795 OD450
- ELISA OD450 (raw) [2]: 0.811 OD450

Substance: PGDM1400 (antibody)
- ELISA OD450 (raw) (BG505 N28 JCBv3 660): 1.09 OD450
- ELISA OD450 (raw) (BG505 N28 502 660-665): 0.982 OD450
- ELISA OD450 (raw) (6931-DS-N28-502-660-665): 0.681 OD450
- ELISA OD450 (raw) (6931-DS-N28-JCBv3-660): 0.861 OD450
- ELISA OD450 (raw) (BG505 N28 JCBv2 660-665): 1.03 OD450
- ELISA OD450 (raw) [1]: 1.07 OD450
- ELISA OD450 (raw) [3]: 0.949 OD450
- ELISA OD450 (raw) [2]: 0.985 OD450

Substance: PGT122 (antibody)
- ELISA OD450 (raw) (BG505 N28 JCBv3 660): 0.906 OD450
- ELISA OD450 (raw) (BG505 N28 502 660-665): 0.864 OD450
- ELISA OD450 (raw) (BG505 N28 JCBv2 660-665): 1 OD450
- ELISA OD450 (raw) [1]: 0.874 OD450
- ELISA OD450 (raw) [3]: 1.48 OD450
- ELISA OD450 (raw) [2]: 1.05 OD450

Substance: PGT145 (antibody)
- ELISA OD450 (raw) (BG505 N28 JCBv3 660): 0.427 OD450
- ELISA OD450 (raw) (BG505 N28 502 660-665): 0.531 OD450
- ELISA OD450 (raw) (6931-DS-N28-502-660-665): 0.938 OD450
- ELISA OD450 (raw) [1]: 0.219 OD450
- ELISA OD450 (raw) [2]: 0.683 OD450

Substance: VRC26.25 (antibody)
- ELISA OD450 (raw) (BG505 N28 JCBv3 660): 0.652 OD450
- ELISA OD450 (raw) (BG505 N28 502 660-665): 0.555 OD450
- ELISA OD450 (raw) (6931-DS-N28-502-660-665): 0.874 OD450
- ELISA OD450 (raw) (6931-DS-N28-JCBv3-660): 0.979 OD450
- ELISA OD450 (raw) (BG505 N28 JCBv2 660-665): 0.544 OD450
- ELISA OD450 (raw) [1]: 0.564 OD450
- ELISA OD450 (raw) [3]: 0.798 OD450
- ELISA OD450 (raw) [2]: 0.71 OD450

Substance: VRC34.01 (antibody)
- ELISA OD450 (raw) (BG505 N28 JCBv3 660): 0.648 OD450
- ELISA OD450 (raw) (BG505 N28 502 660-665): 0.437 OD450
- ELISA OD450 (raw) (6931-DS-N28-502-660-665): 0.718 OD450
- ELISA OD450 (raw) (6931-DS-N28-JCBv3-660): 0.89 OD450
- ELISA OD450 (raw) (BG505 N28 JCBv2 660-665): 0.729 OD450
- ELISA OD450 (raw) [1]: 0.682 OD450
- ELISA OD450 (raw) [3]: 1.05 OD450
- ELISA OD450 (raw) [2]: 0.783 OD450
